Drawing on the supplement of paper PMC6379048, this text covers Kd for three sequences.

Common to all, as to test: Kd (EC50 corrected by depletion factor)
In one data set the target is T1, SYNCRIP (UniProt O60506).
T1 sequence: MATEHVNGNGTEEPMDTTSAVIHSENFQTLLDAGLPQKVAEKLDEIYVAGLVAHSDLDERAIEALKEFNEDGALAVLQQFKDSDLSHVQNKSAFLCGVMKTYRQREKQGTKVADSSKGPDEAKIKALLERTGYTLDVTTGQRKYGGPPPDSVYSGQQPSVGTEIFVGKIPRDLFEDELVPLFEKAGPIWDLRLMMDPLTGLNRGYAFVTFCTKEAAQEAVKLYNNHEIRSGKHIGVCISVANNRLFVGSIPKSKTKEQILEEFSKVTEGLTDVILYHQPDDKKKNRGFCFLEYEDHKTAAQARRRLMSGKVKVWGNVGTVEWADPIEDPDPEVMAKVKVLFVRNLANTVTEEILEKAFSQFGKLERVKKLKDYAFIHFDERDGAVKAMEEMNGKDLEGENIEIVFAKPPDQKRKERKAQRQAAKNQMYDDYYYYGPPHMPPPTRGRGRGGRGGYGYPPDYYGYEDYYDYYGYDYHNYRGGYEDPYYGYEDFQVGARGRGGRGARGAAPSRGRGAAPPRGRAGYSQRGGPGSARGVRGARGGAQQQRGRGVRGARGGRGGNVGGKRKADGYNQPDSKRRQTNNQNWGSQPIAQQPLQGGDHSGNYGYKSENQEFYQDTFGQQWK
Put shortly: (§1)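 Free RNA oligos (0 nM to 30 μM) were pre-incubated with HEK293-FT lysate (2.5 mg protein/well) for 1 h at 4°C, followed by 30 min at 4°C with the same 5′-amino-C6 oligos coupled to NHS-Sepharose beads. Bound proteins were quantified by label-free LC-MS/MS and normalised to the control. EC50 was derived from a four-parameter log-logistic fit, and Kd was obtained by multiplying EC50 by a protein-dependent depletion factor.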

For another data set, the target named is MRPL38 (UniProt Q96DV4). Put shortly:
as §1

The next data set has as its target T2, CSTF1 (UniProt Q05048).
T2 sequence: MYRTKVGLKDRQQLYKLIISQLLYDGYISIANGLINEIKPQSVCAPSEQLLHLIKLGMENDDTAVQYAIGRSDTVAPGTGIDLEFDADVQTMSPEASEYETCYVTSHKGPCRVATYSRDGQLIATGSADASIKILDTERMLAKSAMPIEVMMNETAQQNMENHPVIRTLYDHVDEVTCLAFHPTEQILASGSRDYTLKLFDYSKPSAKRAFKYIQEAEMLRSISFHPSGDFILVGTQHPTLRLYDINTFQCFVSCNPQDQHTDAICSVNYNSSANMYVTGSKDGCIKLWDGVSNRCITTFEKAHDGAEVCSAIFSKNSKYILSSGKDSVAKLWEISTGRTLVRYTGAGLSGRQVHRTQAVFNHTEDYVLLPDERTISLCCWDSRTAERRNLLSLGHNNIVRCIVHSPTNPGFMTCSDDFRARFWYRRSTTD
A digest of the protocol:
as §1

Another data set deals with SKIV2L (UniProt Q15477). Put shortly: as §1
Chain of SKIV2L (Q15477 whole entry): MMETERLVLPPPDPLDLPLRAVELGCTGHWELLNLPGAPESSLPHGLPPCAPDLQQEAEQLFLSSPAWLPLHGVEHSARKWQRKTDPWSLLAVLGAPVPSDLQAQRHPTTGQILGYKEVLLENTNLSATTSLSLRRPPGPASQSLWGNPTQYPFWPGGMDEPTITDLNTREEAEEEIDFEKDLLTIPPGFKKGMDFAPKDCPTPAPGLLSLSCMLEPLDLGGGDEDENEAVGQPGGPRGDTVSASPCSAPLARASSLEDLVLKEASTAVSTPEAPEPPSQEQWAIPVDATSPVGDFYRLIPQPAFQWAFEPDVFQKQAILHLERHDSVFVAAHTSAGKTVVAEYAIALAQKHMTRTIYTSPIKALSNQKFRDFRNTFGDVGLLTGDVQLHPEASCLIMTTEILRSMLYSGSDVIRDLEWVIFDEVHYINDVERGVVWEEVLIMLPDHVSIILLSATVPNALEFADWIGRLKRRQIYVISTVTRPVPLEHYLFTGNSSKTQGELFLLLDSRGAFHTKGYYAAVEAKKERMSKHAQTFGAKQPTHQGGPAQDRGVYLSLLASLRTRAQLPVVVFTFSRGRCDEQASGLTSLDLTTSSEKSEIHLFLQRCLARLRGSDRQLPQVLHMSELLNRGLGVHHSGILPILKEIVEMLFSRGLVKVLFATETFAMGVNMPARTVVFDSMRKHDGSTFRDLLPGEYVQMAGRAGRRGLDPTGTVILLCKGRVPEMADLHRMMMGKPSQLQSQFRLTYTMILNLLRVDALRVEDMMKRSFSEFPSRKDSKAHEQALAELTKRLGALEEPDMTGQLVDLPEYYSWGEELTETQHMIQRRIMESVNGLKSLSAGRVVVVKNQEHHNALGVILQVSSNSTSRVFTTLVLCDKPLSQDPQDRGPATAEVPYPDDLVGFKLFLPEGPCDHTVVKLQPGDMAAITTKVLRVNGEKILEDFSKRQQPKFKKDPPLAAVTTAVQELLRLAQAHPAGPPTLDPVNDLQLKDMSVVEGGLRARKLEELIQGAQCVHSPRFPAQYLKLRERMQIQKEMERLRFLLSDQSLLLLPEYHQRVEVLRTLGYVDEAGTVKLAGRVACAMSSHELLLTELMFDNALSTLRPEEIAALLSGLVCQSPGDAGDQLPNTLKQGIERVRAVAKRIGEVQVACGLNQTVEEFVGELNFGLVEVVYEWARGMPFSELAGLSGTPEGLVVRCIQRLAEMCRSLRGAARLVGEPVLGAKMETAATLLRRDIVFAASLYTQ
A further data set deals with T3, ERAL1 (UniProt O75616).
T3 sequence: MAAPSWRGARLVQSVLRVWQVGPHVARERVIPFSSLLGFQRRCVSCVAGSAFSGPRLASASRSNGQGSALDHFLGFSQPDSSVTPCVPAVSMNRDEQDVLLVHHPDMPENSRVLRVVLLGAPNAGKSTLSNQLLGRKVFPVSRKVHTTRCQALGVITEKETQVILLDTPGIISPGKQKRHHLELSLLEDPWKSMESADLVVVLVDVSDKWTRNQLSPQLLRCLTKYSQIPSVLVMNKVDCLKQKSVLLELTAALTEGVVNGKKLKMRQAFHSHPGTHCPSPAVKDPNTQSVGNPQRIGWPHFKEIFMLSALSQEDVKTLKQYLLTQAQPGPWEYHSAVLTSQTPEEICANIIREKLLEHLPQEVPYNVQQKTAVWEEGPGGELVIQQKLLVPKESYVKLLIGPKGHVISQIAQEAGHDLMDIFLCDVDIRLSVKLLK
Put shortly:
as §1

In the next data set the target is HNRNPA2B1 (UniProt P22626). A digest of the protocol:
as §1

The target of another data set is TTC37 (UniProt Q6PGP7). Put shortly:
as §1

For the next data set, the target named is T4, GRSF1 (UniProt Q12849).
T4 sequence: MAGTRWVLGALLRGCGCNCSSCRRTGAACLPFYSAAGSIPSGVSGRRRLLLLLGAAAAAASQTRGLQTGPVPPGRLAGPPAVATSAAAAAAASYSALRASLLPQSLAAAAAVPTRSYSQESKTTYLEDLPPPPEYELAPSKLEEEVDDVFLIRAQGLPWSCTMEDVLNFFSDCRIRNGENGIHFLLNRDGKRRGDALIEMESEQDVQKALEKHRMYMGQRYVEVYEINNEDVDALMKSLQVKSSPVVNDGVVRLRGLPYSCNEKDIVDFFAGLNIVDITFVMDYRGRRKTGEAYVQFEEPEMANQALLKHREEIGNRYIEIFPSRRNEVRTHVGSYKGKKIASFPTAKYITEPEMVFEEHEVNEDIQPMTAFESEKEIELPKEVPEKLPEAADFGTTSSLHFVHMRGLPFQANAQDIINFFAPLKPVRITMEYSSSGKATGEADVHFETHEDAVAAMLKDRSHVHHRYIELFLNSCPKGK
Put shortly: as §1

Chain of TTC37 (Q6PGP7 whole entry): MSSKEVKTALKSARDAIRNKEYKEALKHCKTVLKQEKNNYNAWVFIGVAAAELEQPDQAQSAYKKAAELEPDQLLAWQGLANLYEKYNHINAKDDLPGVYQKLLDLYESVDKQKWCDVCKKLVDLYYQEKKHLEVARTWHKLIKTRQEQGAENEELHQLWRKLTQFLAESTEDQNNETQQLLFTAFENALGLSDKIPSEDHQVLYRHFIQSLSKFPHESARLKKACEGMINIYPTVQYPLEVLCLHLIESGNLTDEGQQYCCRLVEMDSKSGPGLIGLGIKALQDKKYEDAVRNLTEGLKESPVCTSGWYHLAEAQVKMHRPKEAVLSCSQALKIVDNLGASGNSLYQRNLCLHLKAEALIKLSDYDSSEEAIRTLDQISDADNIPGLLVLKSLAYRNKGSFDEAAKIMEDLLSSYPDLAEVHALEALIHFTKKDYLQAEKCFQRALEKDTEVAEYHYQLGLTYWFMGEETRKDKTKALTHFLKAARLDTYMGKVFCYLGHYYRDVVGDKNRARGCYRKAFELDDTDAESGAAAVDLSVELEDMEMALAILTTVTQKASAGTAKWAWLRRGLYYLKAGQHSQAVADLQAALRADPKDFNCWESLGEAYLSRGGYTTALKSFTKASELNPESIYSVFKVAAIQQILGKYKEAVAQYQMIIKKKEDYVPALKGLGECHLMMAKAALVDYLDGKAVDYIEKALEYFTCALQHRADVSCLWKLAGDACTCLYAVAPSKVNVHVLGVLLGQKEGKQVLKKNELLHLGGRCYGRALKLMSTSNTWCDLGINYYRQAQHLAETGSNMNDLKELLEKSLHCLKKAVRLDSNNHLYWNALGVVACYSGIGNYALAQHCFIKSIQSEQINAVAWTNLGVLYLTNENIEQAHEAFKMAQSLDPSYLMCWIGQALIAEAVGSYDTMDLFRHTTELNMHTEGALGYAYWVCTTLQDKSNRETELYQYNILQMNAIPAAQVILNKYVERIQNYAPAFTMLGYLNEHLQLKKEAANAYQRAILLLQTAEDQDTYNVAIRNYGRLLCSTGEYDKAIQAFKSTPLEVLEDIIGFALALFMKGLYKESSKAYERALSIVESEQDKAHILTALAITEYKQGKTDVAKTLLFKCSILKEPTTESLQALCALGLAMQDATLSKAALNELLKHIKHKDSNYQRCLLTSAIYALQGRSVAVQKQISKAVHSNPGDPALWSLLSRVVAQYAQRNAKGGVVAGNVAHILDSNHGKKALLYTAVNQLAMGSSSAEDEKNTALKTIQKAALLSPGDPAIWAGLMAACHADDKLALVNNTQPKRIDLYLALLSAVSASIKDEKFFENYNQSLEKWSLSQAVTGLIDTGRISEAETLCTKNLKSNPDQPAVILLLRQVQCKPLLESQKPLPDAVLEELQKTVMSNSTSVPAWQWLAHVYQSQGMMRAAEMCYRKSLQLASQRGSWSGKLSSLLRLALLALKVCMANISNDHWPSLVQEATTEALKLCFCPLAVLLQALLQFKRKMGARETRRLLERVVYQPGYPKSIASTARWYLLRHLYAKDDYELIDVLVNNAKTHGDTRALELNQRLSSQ
Chain of HNRNPA2B1 (P22626 whole entry): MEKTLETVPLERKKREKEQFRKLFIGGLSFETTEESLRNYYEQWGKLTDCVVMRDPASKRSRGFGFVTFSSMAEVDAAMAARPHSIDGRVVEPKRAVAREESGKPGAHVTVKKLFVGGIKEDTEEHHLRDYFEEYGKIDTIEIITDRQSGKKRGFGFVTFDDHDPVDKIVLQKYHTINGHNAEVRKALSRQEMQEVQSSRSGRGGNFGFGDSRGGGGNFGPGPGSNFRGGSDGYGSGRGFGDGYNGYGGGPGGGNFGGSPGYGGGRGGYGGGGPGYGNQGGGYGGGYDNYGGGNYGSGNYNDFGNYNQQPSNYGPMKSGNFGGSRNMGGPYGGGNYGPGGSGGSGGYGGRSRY

Take AAUAAA: the Kd with SYNCRIP worked out at 252 nM. This lies in the sub-micromolar range.

CUGUCCU: in the data set with MRPL38, the dissociation constant (Kd) amounted to 40.7 nM. In other words, the double-digit nanomolar range.

As to UAUUUAU, the Kd was 322 nM in the data set with CSTF1; 902 nM in the data set with SKIV2L; 25.5 nM in the data set with ERAL1; 4.9 µM in the data set with HNRNPA2B1; 577 nM with TTC37; 3.42 µM with GRSF1.

By Kd is commonly meant the free concentration of one partner at which half of the binding sites on the other are occupied at equilibrium, for simple one-to-one binding. A high value points to a looser complex.
